From PMC12287439 (Nature Communications, 2025)
Residue numbers refer to the chain shown, from its start. Numbers in names are those of the source. One block for each molecule: values may come before it.

Columns and labels:
LYCHOS [1] = molecular target: T1, LYCHOS (Homo sapiens, UniProt Q7Z3F1, Y57A); assay: cryo-EM structure; assay type: binding
T1 sequence (Q7Z3F1 1-870 Y57A): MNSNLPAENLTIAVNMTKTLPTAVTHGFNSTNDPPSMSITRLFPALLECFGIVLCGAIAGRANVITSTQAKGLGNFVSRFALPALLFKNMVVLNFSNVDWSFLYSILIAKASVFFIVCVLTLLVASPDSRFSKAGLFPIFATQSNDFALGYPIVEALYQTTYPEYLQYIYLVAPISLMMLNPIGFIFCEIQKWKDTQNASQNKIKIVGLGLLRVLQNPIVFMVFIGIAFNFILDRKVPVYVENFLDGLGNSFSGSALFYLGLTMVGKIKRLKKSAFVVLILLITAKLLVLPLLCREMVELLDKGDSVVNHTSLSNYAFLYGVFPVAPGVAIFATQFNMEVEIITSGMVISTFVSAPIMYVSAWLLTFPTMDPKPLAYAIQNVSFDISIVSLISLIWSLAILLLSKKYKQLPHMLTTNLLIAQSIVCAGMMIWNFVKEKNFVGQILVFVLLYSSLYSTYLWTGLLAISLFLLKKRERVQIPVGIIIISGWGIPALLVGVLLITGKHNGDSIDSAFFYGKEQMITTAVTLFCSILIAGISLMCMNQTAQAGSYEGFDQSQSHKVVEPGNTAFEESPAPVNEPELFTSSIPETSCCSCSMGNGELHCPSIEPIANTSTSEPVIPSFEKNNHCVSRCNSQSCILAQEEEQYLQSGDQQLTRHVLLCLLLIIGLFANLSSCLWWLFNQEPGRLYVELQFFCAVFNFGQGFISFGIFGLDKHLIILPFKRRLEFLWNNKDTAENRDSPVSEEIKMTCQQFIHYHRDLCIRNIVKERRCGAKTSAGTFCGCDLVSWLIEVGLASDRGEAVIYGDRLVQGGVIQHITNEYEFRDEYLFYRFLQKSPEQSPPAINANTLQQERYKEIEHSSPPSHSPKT

LYCHOS [2] = molecular target: LYCHOS (Homo sapiens, UniProt Q7Z3F1); assay: BRET recruitment of GATOR1; assay type: cell-based
cryo-EM structure = molecular target: the molecule itself; assay: cryo-EM structure

LYCHOS (Homo sapiens, UniProt Q7Z3F1), sequence (Q7Z3F1 whole entry): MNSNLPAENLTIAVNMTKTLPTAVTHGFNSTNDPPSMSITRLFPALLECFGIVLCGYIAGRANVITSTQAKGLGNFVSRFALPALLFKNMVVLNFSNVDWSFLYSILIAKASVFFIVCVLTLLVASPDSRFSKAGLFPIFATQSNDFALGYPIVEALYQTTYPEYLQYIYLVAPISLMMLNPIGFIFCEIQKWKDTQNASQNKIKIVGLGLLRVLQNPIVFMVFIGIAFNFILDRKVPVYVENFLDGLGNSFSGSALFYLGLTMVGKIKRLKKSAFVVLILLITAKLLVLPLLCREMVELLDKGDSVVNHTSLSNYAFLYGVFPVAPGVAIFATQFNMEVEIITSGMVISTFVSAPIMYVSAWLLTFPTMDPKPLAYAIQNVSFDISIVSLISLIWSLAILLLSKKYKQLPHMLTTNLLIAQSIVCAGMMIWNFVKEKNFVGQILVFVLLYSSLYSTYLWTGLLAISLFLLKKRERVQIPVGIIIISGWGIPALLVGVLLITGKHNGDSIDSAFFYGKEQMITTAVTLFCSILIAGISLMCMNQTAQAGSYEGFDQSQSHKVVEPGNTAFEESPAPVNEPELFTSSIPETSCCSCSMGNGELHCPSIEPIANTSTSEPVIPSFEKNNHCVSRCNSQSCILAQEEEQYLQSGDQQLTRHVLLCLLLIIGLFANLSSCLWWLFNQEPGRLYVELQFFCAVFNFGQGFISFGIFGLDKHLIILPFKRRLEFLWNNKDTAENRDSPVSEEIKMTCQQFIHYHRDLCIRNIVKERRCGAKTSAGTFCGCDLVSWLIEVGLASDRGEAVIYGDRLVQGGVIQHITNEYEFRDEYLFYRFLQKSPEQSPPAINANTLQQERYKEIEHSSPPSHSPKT
LYCHOS (Homo sapiens, UniProt Q7Z3F1), sequence (Q8WTW4 whole entry partner): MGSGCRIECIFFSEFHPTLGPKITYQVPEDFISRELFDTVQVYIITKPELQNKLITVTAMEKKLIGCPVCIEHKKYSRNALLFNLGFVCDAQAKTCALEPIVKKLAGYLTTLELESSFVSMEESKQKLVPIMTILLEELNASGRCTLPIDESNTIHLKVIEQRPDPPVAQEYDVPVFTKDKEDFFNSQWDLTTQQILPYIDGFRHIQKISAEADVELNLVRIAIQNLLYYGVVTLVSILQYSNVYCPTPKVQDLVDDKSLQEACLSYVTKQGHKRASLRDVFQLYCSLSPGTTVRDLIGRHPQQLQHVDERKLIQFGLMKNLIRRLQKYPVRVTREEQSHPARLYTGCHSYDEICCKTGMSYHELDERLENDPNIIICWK
LYCHOS (Homo sapiens, UniProt Q7Z3F1), sequence (Q12980 whole entry partner): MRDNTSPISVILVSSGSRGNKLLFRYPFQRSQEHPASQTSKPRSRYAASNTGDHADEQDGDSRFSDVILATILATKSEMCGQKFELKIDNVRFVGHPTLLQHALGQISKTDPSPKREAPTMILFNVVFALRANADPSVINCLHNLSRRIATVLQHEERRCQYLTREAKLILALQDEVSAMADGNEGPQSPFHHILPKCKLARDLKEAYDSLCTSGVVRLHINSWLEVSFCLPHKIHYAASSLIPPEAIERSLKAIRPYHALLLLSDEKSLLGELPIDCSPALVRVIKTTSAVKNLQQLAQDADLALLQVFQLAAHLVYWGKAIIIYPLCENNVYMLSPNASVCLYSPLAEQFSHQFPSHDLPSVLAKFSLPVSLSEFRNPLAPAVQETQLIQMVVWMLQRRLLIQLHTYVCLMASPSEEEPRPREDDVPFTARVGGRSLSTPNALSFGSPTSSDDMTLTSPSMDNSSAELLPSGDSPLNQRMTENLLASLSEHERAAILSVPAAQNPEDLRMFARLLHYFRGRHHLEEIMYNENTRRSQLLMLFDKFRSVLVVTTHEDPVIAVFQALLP
LYCHOS (Homo sapiens, UniProt Q7Z3F1), sequence (O75140 whole entry partner): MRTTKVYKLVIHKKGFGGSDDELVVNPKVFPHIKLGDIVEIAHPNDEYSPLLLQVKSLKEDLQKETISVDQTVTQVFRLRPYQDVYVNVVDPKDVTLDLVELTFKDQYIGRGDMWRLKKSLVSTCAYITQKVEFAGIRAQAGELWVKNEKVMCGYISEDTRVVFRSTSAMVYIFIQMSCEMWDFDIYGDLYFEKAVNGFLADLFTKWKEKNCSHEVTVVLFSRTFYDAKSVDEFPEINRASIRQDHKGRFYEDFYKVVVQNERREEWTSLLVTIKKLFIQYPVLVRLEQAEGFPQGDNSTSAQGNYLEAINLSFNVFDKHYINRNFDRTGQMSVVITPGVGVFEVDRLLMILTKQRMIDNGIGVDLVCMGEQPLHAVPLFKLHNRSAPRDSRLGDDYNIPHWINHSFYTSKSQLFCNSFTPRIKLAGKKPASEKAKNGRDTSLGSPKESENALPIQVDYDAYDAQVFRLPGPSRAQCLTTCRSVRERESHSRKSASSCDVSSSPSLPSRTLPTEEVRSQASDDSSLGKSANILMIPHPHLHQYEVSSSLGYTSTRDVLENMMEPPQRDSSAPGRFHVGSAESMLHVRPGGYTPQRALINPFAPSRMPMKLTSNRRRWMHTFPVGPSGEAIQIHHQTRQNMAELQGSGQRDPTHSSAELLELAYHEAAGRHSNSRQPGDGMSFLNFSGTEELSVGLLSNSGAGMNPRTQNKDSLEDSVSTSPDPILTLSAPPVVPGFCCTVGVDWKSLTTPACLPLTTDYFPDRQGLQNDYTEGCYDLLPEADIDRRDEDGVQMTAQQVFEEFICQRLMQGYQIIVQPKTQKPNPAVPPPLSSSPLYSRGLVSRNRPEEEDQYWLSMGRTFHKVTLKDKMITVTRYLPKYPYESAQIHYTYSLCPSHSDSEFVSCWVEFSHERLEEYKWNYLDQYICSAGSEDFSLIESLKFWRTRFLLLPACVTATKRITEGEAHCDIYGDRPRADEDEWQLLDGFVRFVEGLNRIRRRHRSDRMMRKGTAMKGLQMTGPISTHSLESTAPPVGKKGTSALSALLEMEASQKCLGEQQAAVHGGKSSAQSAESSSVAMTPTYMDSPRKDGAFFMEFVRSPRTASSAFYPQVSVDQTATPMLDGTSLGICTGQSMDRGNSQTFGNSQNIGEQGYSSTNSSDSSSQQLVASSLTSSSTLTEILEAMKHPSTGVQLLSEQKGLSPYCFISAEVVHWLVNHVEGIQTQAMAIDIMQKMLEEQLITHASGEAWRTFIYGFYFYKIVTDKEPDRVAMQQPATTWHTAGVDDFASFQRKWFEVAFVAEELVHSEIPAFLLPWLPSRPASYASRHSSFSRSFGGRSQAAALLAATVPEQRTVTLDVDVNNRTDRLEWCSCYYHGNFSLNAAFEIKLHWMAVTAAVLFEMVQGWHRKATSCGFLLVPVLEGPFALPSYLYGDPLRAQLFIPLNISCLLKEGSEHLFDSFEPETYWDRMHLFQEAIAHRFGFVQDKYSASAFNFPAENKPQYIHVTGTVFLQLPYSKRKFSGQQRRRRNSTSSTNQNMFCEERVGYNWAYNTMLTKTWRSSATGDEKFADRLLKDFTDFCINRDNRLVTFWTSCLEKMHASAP

Molecule: CC(C)CCC[C@@H](C)[C@H]1CC[C@H]2[C@@H]3CC=C4C[C@@H](OC(=O)CCC(=O)O)CC[C@]4(C)[C@H]3CC[C@]12C [CHS, cholesteryl hemisuccinate]
- cryo-EM structure (3.21 Å, contracted state) (LYCHOS [1]): We found there exist two CHS molecules in the CBC, with which GLD is locked in contracted state

- EC50 (LYCHOS [2]): 165 nM
Molecule: CC(C)CCC[C@@H](C)[C@H]1CC[C@H]2[C@@H]3CC=C4C[C@@H](O)CC[C@]4(C)[C@H]3CC[C@]12C [cholesterol]

B1: human LYCHOS, wild type (lysosomal cholesterol signaling protein) (natural protein, UniProt Q7Z3F1 1-870, looked up)
chain: T1 sequence (Q7Z3F1 1-870 Y57A) with A57Y
- stoichiometry N (cryo-EM structure): 2

B2: human LYCHOS Y57A (natural protein, UniProt Q7Z3F1 1-870, looked up)
chain: T1 sequence (Q7Z3F1 1-870 Y57A)
- stoichiometry N (cryo-EM structure): 2

B3: LYCHOSPLD (permease-like domain of human LYCHOS) (domain or fragment)
chain: MNSNLPAENLTIAVNMTKTLPTAVTHGFNSTNDPPSMSITRLFPALLECFGIVLCGYIAGRANVITSTQAKGLGNFVSRFALPALLFKNMVVLNFSNVDWSFLYSILIAKASVFFIVCVLTLLVASPDSRFSKAGLFPIFATQSNDFALGYPIVEALYQTTYPEYLQYIYLVAPISLMMLNPIGFIFCEIQKWKDTQNASQNKIKIVGLGLLRVLQNPIVFMVFIGIAFNFILDRKVPVYVENFLDGLGNSFSGSALFYLGLTMVGKIKRLKKSAFVVLILLITAKLLVLPLLCREMVELLDKGDSVVNHTSLSNYAFLYGVFPVAPGVAIFATQFNMEVEIITSGMVISTFVSAPIMYVSAWLLTFPTM
- stoichiometry N (cryo-EM structure): 2
